# Square brackets hold non-standard residues; d marks the D form. Primed or numbered codes have the meaning given here. Ends that are not written are not given here. PEG4″ = 4-unit polyethylene glycol spacer; PEG8″ = 8-unit polyethylene glycol spacer
# Assays:
# Assay in all cases: cell-based or functional assay
# [1] = target: type B insulin receptor (UniProt P06213)
# [2] = target: human IGF-1 receptor (human) (UniProt P08069)
# [3] = target: type A insulin receptor (UniProt P06213)
# [4] = target: type B insulin receptor, P06213
# [5] = target: type A insulin receptor, P06213
binder,measurement,setting,value
"MIU-35: B^1(H5,10Y16L17)25-C^1-A^1(H8N18,21) (ligand) GPEHLCGAHLVDALYLVCGDRGFYGYGSSSRRAPQTGIVDECCHRSCDLRRLENYCN","% (potency at the receptor, assay not named)",[1],17.4%
same,"% Insulin Activity (in vitro, assay not named)",[1],17.4%
same,"% (potency at the receptor, assay not named)",[2],3.2%
same,"% Insulin Activity (in vitro, assay not named)",[2],3.2%
same,"% (potency at the receptor, assay not named)",[3],61.4%
same,"% Insulin Activity (in vitro, assay not named)",[3],61.4%
GE5W-B^1(A5H10Y16L17)25-C^1-A^1(H8N18N21) (ligand) GEEEEEWGPEALCGAHLVDALYLVCGDRGFYGYGSSSRRAPQTGIVDECCHRSCDLRRLENYCN,"% (potency at the receptor, assay not named)",[1],2.3%
same,"% (potency at the receptor, assay not named)",[2],0.3%
same,"% (potency at the receptor, assay not named)",[3],8.6%
B^1(A5H10Y16L17)25-C^1-A^1(H8N18N21) (ligand) GPEALCGAHLVDALYLVCGDRGFYGYGSSSRRAPQTGIVDECCHRSCDLRRLENYCN,"% (potency at the receptor, assay not named)",[1],5.7%
same,"% (potency at the receptor, assay not named)",[2],2.5%
"B^1(H5,10Y16L17A24)25-C^1-A^1(H8N18,N21) (ligand) GPEHLCGAHLVDALYLVCGDRGAYGYGSSSRRAPQTGIVDECCHRSCDLRRLENYCN","% (potency at the receptor, assay not named)",[1],0.4%
same,"% (potency at the receptor, assay not named)",[2],0.3%
same,"% (potency at the receptor, assay not named)",[3],0.1%
"GE5W-B^1(H5,10Y16L17)25-C^1-A^1(A1H8N18,21) (ligand) GEEEEEWGPEHLCGAHLVDALYLVCGDRGFYGYGSSSRRAPQTAIVDECCHRSCDLRRLENYCN","% (potency at the receptor, assay not named)",[4],0.7%
same,"% (potency at the receptor, assay not named)",[5],2.1%
"B^1(H5,10Y16L17)25-C^1-A^1(T8N18,21) (ligand) GPEHLCGAHLVDALYLVCGDRGFYGYGSSSRRAPQTGIVDECCTRSCDLRRLENYCN","% (potency at the receptor, assay not named)",[4],8.4%
same,"% (potency at the receptor, assay not named)",[5],20.4%
"MIU-57: B1-PEG20K MIU-35 (ligand, ends and bridges not checked) {PEG 20 kDa}-GPEHLCGAHLVDALYLVCGDRGFYGYGSSSRRAPQTGIVDECCHRSCDLRRLENYCN","% (potency at the receptor, assay not named)",[4],1.1%
same,"% Insulin Activity (in vitro, assay not named)",[4],1.1%
same,"Phosphorylation (EC50), % IR-B",[4],1.1%
same,"% (potency at the receptor, assay not named)",[5],4.5%
same,"% Insulin Activity (in vitro, assay not named)",[5],3.1%
same,"Phosphorylation (EC50), % IR-A",[5],4.5%
"MIU-43 DP8Mut3: B^1(H5,10Y16L17R29)30-C^1des9-12-A^1(H8,N18,21) (ligand) GPEHLCGAHLVDALYLVCGDRGFYFNKRTGYGSSSRRGIVDECCHRSCDLRRLENYCN",% activity in vitro,[4],16.7%
same,% activity in vitro,[5],97.5%
"DP8Mut3KA14: B^1(H5,10Y16L17R29)30-C^1des9-12-A^1(H8,K14,N18,21) (ligand) GPEHLCGAHLVDALYLVCGDRGFYFNKRTGYGSSSRRGIVDECCHRSCDLKRLENYCN",% activity in vitro,[4],12.6%
same,% activity in vitro,[5],132%
"GPEHLCGAHLVDALYLVCGDRGFYFNKKGIVDECCHRSCDLRRLENYCN (ligand) [DP3(SC): B^1(H5,10Y16L17K29)29-A^1(H8,N18,21)]",% activity in vitro,[5],0.03%
"DP3(TC): B^1(H5,10Y16L17K29)29:A^1(H8,N18,21) (ligand) chain 1: GPEHLCGAHLVDALYLVCGDRGFYFNKK chain 2: GIVDECCHRSCDLRRLENYCN",% activity in vitro,[4],33.1%
same,% activity in vitro,[5],160%
"MIU-79 di-10K-SC: B1,A14-10K B^1(H5,10Y16L17R29)30-C^1des9-12-A^1(H8,K14,N18,21) (ligand, ends and bridges not checked) {PEG 10 kDa}-GPEHLCGAHLVDALYLVCGDRGFYFNKRTGYGSSSRRGIVDECCHRSCDLK(PEG 10 kDa)RLENYCN",% activity in vitro,[4],0.2%
same,% activity in vitro,[5],1.7%
"di-10K-TC: B1,A14-10K B^1(H5,10Y16L17R29)29:A^1(H8K14N18,21) (ligand, ends and bridges not checked) chain 1: {PEG 10 kDa}-GPEHLCGAHLVDALYLVCGDRGFYFNKR chain 2: GIVDECCHRSCDLK(PEG 10 kDa)RLENYCN",% activity in vitro,[4],2.1%
same,% activity in vitro,[5],6.4%
"GPEHLCGAHLVDALYLVCGDRGFYFNKKGIVDECCHRSCDLRRLENYCN (ligand) [MIU-77 mono-20K-SC: B1-20K B^1(H5,10Y16L17K29)29-A^1(H8N18,21)]",% activity in vitro,[3],0.1%
"MIU-78 mono-20K-TC: B1-20K B^1(H5,10Y16L17K29)29:A^1(H8N18,21) (ligand) chain 1: GPEHLCGAHLVDALYLVCGDRGFYFNKK chain 2: GIVDECCHRSCDLRRLENYCN",% activity in vitro,[1],3.2%
same,% activity in vitro,[3],8.2%
"Ac-GPEHLCGAELVDALYLVCGDRGFY[PEG8″]K(PEG 20 kDa)[PEG4″]GIVDECCFRSCDLRRLENYCN (ligand, cysteine pairing not given here) [MIU-56: C8-PEG20K B^1(H5,Y16,L17)25-PEG8-K-PEG4-A^1(N18,N21)]","Phosphorylation (EC50), % IR-B",[4],2%
same,"% Insulin Activity (in vitro, assay not named)",[5],14.8%
same,"Phosphorylation (EC50), % IR-A",[5],14.8%
